Test results reported in publication PMC12520357 (2025).

Biological target: T1, 14-3-3 proteins, P29311
T1 chain: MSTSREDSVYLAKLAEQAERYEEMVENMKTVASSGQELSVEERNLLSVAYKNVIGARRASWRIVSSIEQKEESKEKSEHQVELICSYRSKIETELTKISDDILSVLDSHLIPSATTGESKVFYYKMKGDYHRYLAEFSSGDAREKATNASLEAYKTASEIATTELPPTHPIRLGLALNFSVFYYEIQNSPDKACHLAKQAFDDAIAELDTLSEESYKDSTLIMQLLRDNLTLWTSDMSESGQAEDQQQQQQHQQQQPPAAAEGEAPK
Assay: co-immunoprecipitation (anti-FLAG IP, immunoblot quantification)
Settings: chain shown with the change; n = 3; reg1Δ Snf1-GFP Glc7-GFP cells; parent: est. 1.0; read off a plot

B1: Reg1-FLAG (wild type), Q00816 P278Q (protein)
chain: MSTNLANYFAGKKDIENEHVNRNASHESNSKSDVKISGNDNDNDEDMGPSVSMAVQAKNDDDFHKSTFNLKRTRSMGLLDEYIDPTKKLLGRSDDLYDNDNEYYDNSSNNSSSNSSDDDYDDGYQEHSTSVSPPPADNDSYLIPQDDNDVVVEPERHVDYLSHEWKESEISNSWKYIILKKKKRDVDLVNAARLENASWRTWAKARNNLKTVSPEVVNWSKDSDVTWLYGPIVRDSEGNAQSEEEHDLERGYGSDDENSKRISMPTKNSKSIAAAPKQILKKRTVTEIIEDNALWKLNEARKHMTEMKHASVIMDPNGNKNVHDDFDALAAQVNAQYYHYPKESNSSVSLKSQHSDKKDNSTIPNPVGENSNGGGDKGEEDLHLKSALHVQNNRSTAQSNKSILENSTNDRKANLDQNLNSPDNNRFPSSTSSSNRDNENNSMGLSSILTSNPSEKSNKPTKNRHIHFNDRVEQCMALRYPASQSEDDESDDENKQYVDVNNNANVTTINNNRTPLLAIQHKSIPINSATEHLNKNTSDDDTSSQSSSSSHSDDEEHGGLYINARFSRRSDSGVHSPITDNSSVASSTTSRAHVRPIIKLLPDTTLNYGSDEESDNGEFNGYGNAVSHNVNTSRGYDYIYDYNSVYTGDTSSFLPVDSCDIVDVPEGMDLQTAIADDNASNYEFNNAVESKEKHVPQLHKASANNTTRQHGSHMLLYDDDNYSSSSDSEQQFIEDSQYNSSDDEEEEDDDDQEVDDNHDEGLSLRRTLSLGKSGSTNSLYDLAQPSLSSATPQQKNPTNFTGGKTDVDKDAQLAVRPYPLKRNSSSGNFIFNSDSEEESSSEEEQRPLPANSQLVNRSVLKGSVTPANISSQKKKALPKQPKASDSSQSFRIVNNTPSPAEVGASDVAIEGYFSPRNESIKSVVSGGNMMDHQDHSEMDTLAKGFENCHINNASKLKDKKVDSVQTTRKEASLTDSSNESLHKVVQNARGMASKYLHSWKKSDVKPQENGNDSS
  ratio to parent: 1.2

B2: Reg1-FLAG (wild type), Q00816 W165G (protein)
chain: MSTNLANYFAGKKDIENEHVNRNASHESNSKSDVKISGNDNDNDEDMGPSVSMAVQAKNDDDFHKSTFNLKRTRSMGLLDEYIDPTKKLLGRSDDLYDNDNEYYDNSSNNSSSNSSDDDYDDGYQEHSTSVSPPPADNDSYLIPQDDNDVVVEPERHVDYLSHEGKESEISNSWKYIILKKKKRDVDLVNAARLENASWRTWAKARNNLKTVSPEVVNWSKDSDVTWLYGPIVRDSEGNAQSEEEHDLERGYGSDDENSKRISMPTKNSKSIAAAPKPILKKRTVTEIIEDNALWKLNEARKHMTEMKHASVIMDPNGNKNVHDDFDALAAQVNAQYYHYPKESNSSVSLKSQHSDKKDNSTIPNPVGENSNGGGDKGEEDLHLKSALHVQNNRSTAQSNKSILENSTNDRKANLDQNLNSPDNNRFPSSTSSSNRDNENNSMGLSSILTSNPSEKSNKPTKNRHIHFNDRVEQCMALRYPASQSEDDESDDENKQYVDVNNNANVTTINNNRTPLLAIQHKSIPINSATEHLNKNTSDDDTSSQSSSSSHSDDEEHGGLYINARFSRRSDSGVHSPITDNSSVASSTTSRAHVRPIIKLLPDTTLNYGSDEESDNGEFNGYGNAVSHNVNTSRGYDYIYDYNSVYTGDTSSFLPVDSCDIVDVPEGMDLQTAIADDNASNYEFNNAVESKEKHVPQLHKASANNTTRQHGSHMLLYDDDNYSSSSDSEQQFIEDSQYNSSDDEEEEDDDDQEVDDNHDEGLSLRRTLSLGKSGSTNSLYDLAQPSLSSATPQQKNPTNFTGGKTDVDKDAQLAVRPYPLKRNSSSGNFIFNSDSEEESSSEEEQRPLPANSQLVNRSVLKGSVTPANISSQKKKALPKQPKASDSSQSFRIVNNTPSPAEVGASDVAIEGYFSPRNESIKSVVSGGNMMDHQDHSEMDTLAKGFENCHINNASKLKDKKVDSVQTTRKEASLTDSSNESLHKVVQNARGMASKYLHSWKKSDVKPQENGNDSS
  ratio to parent: 1.1

B3: Reg1-FLAG (wild type), Q00816 N624S (protein)
chain: MSTNLANYFAGKKDIENEHVNRNASHESNSKSDVKISGNDNDNDEDMGPSVSMAVQAKNDDDFHKSTFNLKRTRSMGLLDEYIDPTKKLLGRSDDLYDNDNEYYDNSSNNSSSNSSDDDYDDGYQEHSTSVSPPPADNDSYLIPQDDNDVVVEPERHVDYLSHEWKESEISNSWKYIILKKKKRDVDLVNAARLENASWRTWAKARNNLKTVSPEVVNWSKDSDVTWLYGPIVRDSEGNAQSEEEHDLERGYGSDDENSKRISMPTKNSKSIAAAPKPILKKRTVTEIIEDNALWKLNEARKHMTEMKHASVIMDPNGNKNVHDDFDALAAQVNAQYYHYPKESNSSVSLKSQHSDKKDNSTIPNPVGENSNGGGDKGEEDLHLKSALHVQNNRSTAQSNKSILENSTNDRKANLDQNLNSPDNNRFPSSTSSSNRDNENNSMGLSSILTSNPSEKSNKPTKNRHIHFNDRVEQCMALRYPASQSEDDESDDENKQYVDVNNNANVTTINNNRTPLLAIQHKSIPINSATEHLNKNTSDDDTSSQSSSSSHSDDEEHGGLYINARFSRRSDSGVHSPITDNSSVASSTTSRAHVRPIIKLLPDTTLNYGSDEESDNGEFNGYGSAVSHNVNTSRGYDYIYDYNSVYTGDTSSFLPVDSCDIVDVPEGMDLQTAIADDNASNYEFNNAVESKEKHVPQLHKASANNTTRQHGSHMLLYDDDNYSSSSDSEQQFIEDSQYNSSDDEEEEDDDDQEVDDNHDEGLSLRRTLSLGKSGSTNSLYDLAQPSLSSATPQQKNPTNFTGGKTDVDKDAQLAVRPYPLKRNSSSGNFIFNSDSEEESSSEEEQRPLPANSQLVNRSVLKGSVTPANISSQKKKALPKQPKASDSSQSFRIVNNTPSPAEVGASDVAIEGYFSPRNESIKSVVSGGNMMDHQDHSEMDTLAKGFENCHINNASKLKDKKVDSVQTTRKEASLTDSSNESLHKVVQNARGMASKYLHSWKKSDVKPQENGNDSS
  ratio to parent: 1.4

B4: Reg1-FLAG (wild type), Q00816 P231S (protein)
chain: MSTNLANYFAGKKDIENEHVNRNASHESNSKSDVKISGNDNDNDEDMGPSVSMAVQAKNDDDFHKSTFNLKRTRSMGLLDEYIDPTKKLLGRSDDLYDNDNEYYDNSSNNSSSNSSDDDYDDGYQEHSTSVSPPPADNDSYLIPQDDNDVVVEPERHVDYLSHEWKESEISNSWKYIILKKKKRDVDLVNAARLENASWRTWAKARNNLKTVSPEVVNWSKDSDVTWLYGSIVRDSEGNAQSEEEHDLERGYGSDDENSKRISMPTKNSKSIAAAPKPILKKRTVTEIIEDNALWKLNEARKHMTEMKHASVIMDPNGNKNVHDDFDALAAQVNAQYYHYPKESNSSVSLKSQHSDKKDNSTIPNPVGENSNGGGDKGEEDLHLKSALHVQNNRSTAQSNKSILENSTNDRKANLDQNLNSPDNNRFPSSTSSSNRDNENNSMGLSSILTSNPSEKSNKPTKNRHIHFNDRVEQCMALRYPASQSEDDESDDENKQYVDVNNNANVTTINNNRTPLLAIQHKSIPINSATEHLNKNTSDDDTSSQSSSSSHSDDEEHGGLYINARFSRRSDSGVHSPITDNSSVASSTTSRAHVRPIIKLLPDTTLNYGSDEESDNGEFNGYGNAVSHNVNTSRGYDYIYDYNSVYTGDTSSFLPVDSCDIVDVPEGMDLQTAIADDNASNYEFNNAVESKEKHVPQLHKASANNTTRQHGSHMLLYDDDNYSSSSDSEQQFIEDSQYNSSDDEEEEDDDDQEVDDNHDEGLSLRRTLSLGKSGSTNSLYDLAQPSLSSATPQQKNPTNFTGGKTDVDKDAQLAVRPYPLKRNSSSGNFIFNSDSEEESSSEEEQRPLPANSQLVNRSVLKGSVTPANISSQKKKALPKQPKASDSSQSFRIVNNTPSPAEVGASDVAIEGYFSPRNESIKSVVSGGNMMDHQDHSEMDTLAKGFENCHINNASKLKDKKVDSVQTTRKEASLTDSSNESLHKVVQNARGMASKYLHSWKKSDVKPQENGNDSS
  ratio to parent: 1.2

B5: Reg1-FLAG (wild type), Q00816 A54T (protein)
chain: MSTNLANYFAGKKDIENEHVNRNASHESNSKSDVKISGNDNDNDEDMGPSVSMTVQAKNDDDFHKSTFNLKRTRSMGLLDEYIDPTKKLLGRSDDLYDNDNEYYDNSSNNSSSNSSDDDYDDGYQEHSTSVSPPPADNDSYLIPQDDNDVVVEPERHVDYLSHEWKESEISNSWKYIILKKKKRDVDLVNAARLENASWRTWAKARNNLKTVSPEVVNWSKDSDVTWLYGPIVRDSEGNAQSEEEHDLERGYGSDDENSKRISMPTKNSKSIAAAPKPILKKRTVTEIIEDNALWKLNEARKHMTEMKHASVIMDPNGNKNVHDDFDALAAQVNAQYYHYPKESNSSVSLKSQHSDKKDNSTIPNPVGENSNGGGDKGEEDLHLKSALHVQNNRSTAQSNKSILENSTNDRKANLDQNLNSPDNNRFPSSTSSSNRDNENNSMGLSSILTSNPSEKSNKPTKNRHIHFNDRVEQCMALRYPASQSEDDESDDENKQYVDVNNNANVTTINNNRTPLLAIQHKSIPINSATEHLNKNTSDDDTSSQSSSSSHSDDEEHGGLYINARFSRRSDSGVHSPITDNSSVASSTTSRAHVRPIIKLLPDTTLNYGSDEESDNGEFNGYGNAVSHNVNTSRGYDYIYDYNSVYTGDTSSFLPVDSCDIVDVPEGMDLQTAIADDNASNYEFNNAVESKEKHVPQLHKASANNTTRQHGSHMLLYDDDNYSSSSDSEQQFIEDSQYNSSDDEEEEDDDDQEVDDNHDEGLSLRRTLSLGKSGSTNSLYDLAQPSLSSATPQQKNPTNFTGGKTDVDKDAQLAVRPYPLKRNSSSGNFIFNSDSEEESSSEEEQRPLPANSQLVNRSVLKGSVTPANISSQKKKALPKQPKASDSSQSFRIVNNTPSPAEVGASDVAIEGYFSPRNESIKSVVSGGNMMDHQDHSEMDTLAKGFENCHINNASKLKDKKVDSVQTTRKEASLTDSSNESLHKVVQNARGMASKYLHSWKKSDVKPQENGNDSS
  ratio to parent: 1.2
